In data set [1] the test system is HeLa Kyoto. In words: solubility in G1/S (NP-40 vs SDS abundance) (log2 ratio); higher = more soluble. The note with it: cell cycle stage: G1/S.
Data set [2] deals with HeLa Kyoto. In words: melting temperature (median over replicates), in situ; higher = more thermally stable.
In data set [3] the test system is HeLa Kyoto. Kind of data set: solubility change mitosis vs G1/S (difference of NP-40 vs SDS log2 ratios) (log2 ratio difference); higher = more soluble in mitosis.
Data set [4] deals with HeLa Kyoto. Kind of data set: thermal stability score vs G1/S (z-score of summed log2 fold changes over temperatures); higher = more thermally stable than in G1/S.
Where [5] appears, read: cell cycle stage: early G1 (4.5 h after nocodazole release).

The text below walks through data of the supplement of paper PMC5998384.
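Wherever melting temperature (median over replicates), in situ is given: HeLa Kyoto cells synchronized by double thymidine or nocodazole block, proteins quantified by TMT10plex mass spectrometry, three independent biological replicates.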
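Wherever solubility change mitosis vs G1/S (difference of NP-40 vs SDS log2 ratios) is given: synchronized HeLa Kyoto cells (double thymidine block for G1/S, nocodazole release for mitosis), protein amounts in NP-40 versus SDS lysates quantified by mass spectrometry, three biological replicates.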
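Wherever solubility in G1/S (NP-40 vs SDS abundance) is given: HeLa Kyoto cells arrested at G1/S by double thymidine block, proteins quantified by TMT10plex mass spectrometry in mild NP-40 versus SDS extracts, three biological replicates.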
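Wherever thermal stability score vs G1/S (z-score of summed log2 fold changes over temperatures) is given: synchronized HeLa Kyoto cells, proteins quantified by TMT10plex mass spectrometry, three biological replicates, mitosis taken 0.5 h after nocodazole release, G1/S directly after double thymidine block.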

Turning to “MTSLYGRHAEKTTDMPKPSAPKVHVQRSVSRDTIAIHFSASGEEEEEEEEEFREYFEEGLDDQSIVTGLEAKEDLYLEPQVGHDPAGPAASPVLADGLSVSQAPAILPVSKNTVKLLESPVPAAQVLSTVPLAVSPGSSSSGPLASSPSVSSLSEQKTSSSSPLSSPSKSPILSSSASTSTLSSAKPFMSLVKSLSTEVEPKESPHPARHRHLMKTLVKSLSTDTSRQESDTVSYKPPDSKLNLHLFKQFTQPRNTGGDSKTAPSSPLTSPSDTRSFFKVPEMEAKIEDTKRRLSEVIYEPFQLLSKIIGEESGSHRPKALSSSASELSNLSSLNGHLESNNNYSIKEEECDSEGDGYGSDSNIPRSDHPKSTGEPTREIELKSSQGSSLKDLGLKTSSLVLEKCSLSALVSKEDEEFCELYTEDFDLETEGESKVDKLSDIPLKPEVLAEDGVVLDSEDEVDSAVQHPELPVKTLGFFIMCVYVYLILPLPHYVSGLFLGIGLGFMTAVCVIWFFTPPSAHKYHKLHKNLRHWNTRSLDIKEPEILKGWMNEIYNYDPETYHATLTHSVFVRLEGGTLRLSKPNKNISRRASYNEPKPEVTYISQKIYDLSDSKIYLVPKTLARKRIWNKKYPICIELGQQDDFMSKAQTDKETSEEKPPAEGSEDPKKPPRPQEGTRSSQRDQILYLFGRTGREKEEWFRRFILASKLKSEIKKSSGVSGGKPGLLPAHSRHNSPSGHLTHSRSSSKGSVEEIMSQPKQKELAGSVRQKMLLDYSVYMGRCVPQESRSPQRSPLQSAESSPTAGKKLPEVPPSEEEEQEAWVNALLGRIFWDFLGEKYWSDLVSKKIQMKLSKIKLPYFMNELTLTELDMGVAVPKILQAFKPYVDHQGLWIDLEMSYNGSFLMTLETKMNLTKLGKEPLVEALKVGEIGKEGCRPRAFCLADSDEESSSAGSSEEDDAPEPSGGDKQLLPGAEGYVGGHRTSKIMRFVDKITKSKYFQKATETEFIKKKIEEVSNTPLLLTVEVQECRGTLAVNIPPPPTDRVWYGFRKPPHVELKARPKLGEREVTLVHVTDWIEKKLEQEFQKVFVMPNMDDVYITIMHSAMDPRSTSCLLKDPPVEAADQP [TEX2]”, the “solubility in G1/S (log2)” value in data set [1] was -0.062. For the same sequence, the melting temperature is 50.1 °C in data set [2] (cell cycle stage: G1/S) and 50.4 °C in data set [2] (cell cycle stage: mitosis). In addition, the “solubility change mitosis (log2)” value in data set [3] is -0.118. Further, the thermal stability score is -0.212 in data set [4] (setting [5]) and -0.23 in data set [4] (cell cycle stage: mitosis).

As for “MTTKRSLFVRLVPCRCLRGEEETVTTLDYSHCSLEQVPKEIFTFEKTLEELYLDANQIEELPKQLFNCQSLHKLSLPDNDLTTLPASIANLINLRELDVSKNGIQEFPENIKNCKVLTIVEASVNPISKLPDGFSQLLNLTQLYLNDAFLEFLPANFGRLTKLQILELRENQLKMLPKTMNRLTQLERLDLGSNEFTEVPEVLEQLSGLKEFWMDANRLTFIPGFIGSLKQLTYLDVSKNNIEMVEEGISTCENLQDLLLSSNSLQQLPETIGSLKNITTLKIDENQLMYLPDSIGGLISVEELDCSFNEVEALPSSIGQLTNLRTFAADHNYLQQLPPEIGSWKNITVLFLHSNKLETLPEEMGDMQKLKVINLSDNRLKNLPFSFTKLQQLTAMWLSDNQSKPLIPLQKETDSETQKMVLTNYMFPQQPRTEDVMFISDNESFNPSLWEEQRKQRAQVAFECDEDKDEREAPPREGNLKRYPTPYPDELKNMVKTVQTIVHRLKDEETNEDSGRDLKPHEDQQDINKDVGVKTSESTTTVKSKVDEREKYMIGNSVQKISEPEAEISPGSLPVTANMKASENLKHIVNHDDVFEESEELSSDEEMKMAEMRPPLIETSINQPKVVALSNNKKDDTKETDSLSDEVTHNSNQNNSNCSSPSRMSDSVSLNTDSSQDTSLCSPVKQTHIDINSKIRQEDENFNSLLQNGDILNSSTEEKFKAHDKKDFNLPEYDLNVEERLVLIEKSVDSTATADDTHKLDHINMNLNKLITNDTFQPEIMERSKTQDIVLGTSFLSINSKEETEHLENGNKYPNLESVNKVNGHSEETSQSPNRTEPHDSDCSVDLGISKSTEDLSPQKSGPVGSVVKSHSITNMEIGGLKIYDILSDNGPQQPSTTVKITSAVDGKNIVRSKSATLLYDQPLQVFTGSSSSSDLISGTKAIFKFDSNHNPEEPNIIRGPTSGPQSAPQIYGPPQYNIQYSSSAAVKDTLWHSKQNPQIDHASFPPQLLPRSESTENQSYAKHSANMNFSNHNNVRANTAYHLHQRLGPARHGEMWAISPNDRLIPAVTRSTIQRQSSVSSTASVNLGDPGSTRRAQIPEGDYLSYREFHSAGRTPPMMPGSQRPLSARTYSIDGPNASRPQSARPSINEIPERTMSVSDFNYSRTSPSKRPNARVGSEHSLLDPPGKSKVPRDWREQVLRHIEAKKLEKKHPQTSSSGDPCQDGIFISGQQNYSSATLSHKDVPPDSLMKMPLSNGQMGQPLRPQANYSQIHHPPQASVARHPSREQLIDYLMLKVAHQPPYTQPHCSPRQGHELAKQEIRVRVEKDPELGFSISGGVGGRGNPFRPDDDGIFVTRVQPEGPASKLLQPGDKIIQANGYSFINIEHGQAVSLLKTFQNTVELIIVREVSS [ERBB2IP]”, the “solubility in G1/S (log2)” value in data set [1] was -0.0185. The melting temperature is 48.8 °C in data set [2] (cell cycle stage: G1/S) and 49 °C in data set [2] (cell cycle stage: mitosis). Moreover, the “solubility change mitosis (log2)” value in data set [3] is -0.0785. Further, the figures for the thermal stability score in data set [4] (setting [5]) and in data set [4] (cell cycle stage: mitosis) were 0.246 and 1.12, respectively.
